# PMC7578760
# B1: DUSP6 site #5 (EMSA) (dsDNA)
# DNA 1: GGCAGCTTCATTGAGAGAGA
# DNA 2: TCTCTCTCAATGAAGCTGCC
# B2: DUSP6 site #6 (EMSA) (dsDNA)
# DNA 1: GAGAGATTCATTGACACTAA
# DNA 2: TTAGTGTCAATGAATCTCTC
# B3: DUSP6 site #6 (ITC) (dsDNA)
# DNA 1: GAGAGATTCATTGACACTAA
# DNA 2: TTAGTGTCAATGAATCTCTC
# B4: DUSP6 mutant site #4 (EMSA) (dsDNA)
# DNA 1: TTGGATTTAGCTCACTGGGG
# DNA 2: CCCCAGTGAGCTAAATCCAA
# B5: DUSP6 site #4 (EMSA) (dsDNA)
# DNA 1: TTGGATTTCATTCACTGGGG
# DNA 2: CCCCAGTGAATGAAATCCAA
# B6: DUSP6 site #5 (ITC) (dsDNA)
# DNA 1: GGCAGCTTCATTGAGAGAGA
# DNA 2: TCTCTCTCAATGAAGCTGCC
# B7: DUSP6 site #4 (ITC) (dsDNA)
# DNA 1: TTGGATTTCATTCACTGGGG
# DNA 2: CCCCAGTGAATGAAATCCAA
# Tests used:
# CIC-HMG/C1 fusion [1] = target: T1, CIC-HMG/C1 fusion (UniProt Q96RK0-2 188-288+1401-1608, internal_change); assay: EMSA
# CIC-HMG/C1 fusion [2] = target: T1, CIC-HMG/C1 fusion; assay: ITC
# CIC-HMG = CIC-HMG (UniProt Q96RK0-2 188-288); assay: ITC
binder,measurement,setting,value
B1,binding result,CIC-HMG/C1 fusion [1],binds
B2,binding result,CIC-HMG/C1 fusion [1],binds
B3,binding result,CIC-HMG/C1 fusion [2],binds
B4,binding result,CIC-HMG/C1 fusion [1],no binding
B5,binding result,CIC-HMG/C1 fusion [1],binds
B6,binding result,CIC-HMG/C1 fusion [2],binds
B7,binding result,CIC-HMG,no binding
same,binding result,CIC-HMG/C1 fusion [2],binds
